Series [1] relates to AGPPase (soluble and particulate isoforms). Briefly: AGPPase enzymatic assay (two-step spectrophotometric determination of G1P produced from ADPG). In kind it is biochemical, barley (Hordeum vulgare), tomato (Lycopersicon sculentum).
Series [2] can be described thus: Stability of AGPPase to pH and temperature. It counts as physicochemical. Particulars: 65° C. for 30 minutes.

B1: K proteinase: protease (Boehringer) (protein, UniProt P06873 106-384, looked up)
Proteinase K: AAQTNAPWGLARISSTSPGTSTYYYDESAGQGSCVYVIDTGIEASHPEFEGRAQMVKTYYYSSRDGNGHGTHCAGTVGSRTYGVAKKTQLFGVKVLDDNGSGQYSTIIAGMDFVASDKNNRNCPKGVVASLSLGGGYSSSVNSAAARLQSSGVMVAVAAGNNNADARNYSPASEPSVCTVGASDRYDRRSSFSNYGSVLDIFGPGTSILSTWIGGSTRSISGTSMATPHVAGLAAYLMTLGKTTAASACRYIADTANKGDLSNIPFGTVNLLAYNNYQA
Regarding B1, the “Resistance of AGPPase to ionic detergents and proteases” value in series [1] is given as “resistant”.

B2: Soluble AGPPase: soluble isoform of AGPPase purified from barley leaves, a germin-like glycoprotein (protein)
chain: MANAMLLPVLVSFLVLPFSAMALTQDFCVADLSCSDTPAGYPCKTGVGAGDFYYHGLAAAGNTSNLIKAAVTPAFVGQFPGVNGLGISAARLDIAVGGVVPMHTHPAASELLFVTEGTILAGFISSSSNTVYTKTLYKGDIMVFPQGLLHYQYNGGSSSAVALVAFSGPNPGLQITDYALFANNLPSAVVEKVTFLDDAQVKKLKSVLGGSG
modifications: Hordeum vulgare cv. Scarlett; Soluble AGPPase deduced from cDNA
notes: soluble isoform of AGPPase purified from barley leaves, a germin-like glycoprotein
As to B2, the “Heat resistance of soluble AGPPase” value in series [2] is on record as “resistant”.
